According to patent US6903185:

What was measured:
[1] = target: T1, Zif268 (three-finger peptide) (UniProt P08046 P08046:333-421); assay: cell_activity; 293 cells
[2] = target: T1, Zif268 (three-finger peptide); assay: EMSA; room temp
[3] = target: T1, Zif268 (three-finger peptide); assay: EMSA; pH 7.0, 100 mM NaCl, 5 mM MgCl2, Zn, room temp

B1: N/Z site in luciferase reporter promoter (dsDNA)
DNA 1: AAGGGTTCAGGCGTGGGCG
DNA 2: CGCCCACGCCTGAACCCTT
activity [1]: 8.9 fold repression

B2: N//Z site (dsDNA)
DNA 1: TCTGCAAGGGTTCAGTGCGTGGGCGGTAAG
DNA 2: CTTACCGCCCACGCACTGAACCCTTGCAGA
Kd [2]: 0.014 nM

B3: NZ site (dsDNA)
DNA 1: TCTGCAAGGGTTCAGCGTGGGCGGTAAG
DNA 2: CTTACCGCCCACGCTGAACCCTTGCAGA
Kd [3]: 0.012 nM

B4: N//Z site in luciferase reporter promoter (dsDNA)
DNA 1: AAGGGTTCAGTGCGTGGGCG
DNA 2: CGCCCACGCACTGAACCCTT
activity [1]: 15 fold repression

B5: N/Z site (dsDNA)
DNA 1: TCTGCAAGGGTTCAGGCGTGGGCGGTAAG
DNA 2: CTTACCGCCCACGCCTGAACCCTTGCAGA
Kd [2]: 0.014 nM

B6: Z site in luciferase reporter promoter (dsDNA)
DNA 1: GCGTGGGCG
DNA 2: CGCCCACGC
activity [1]: 13 fold repression
